Measured values as given in patent publication US20150158938A1 (SNU R AND DB FOUNDATION, published 2015).

Target: T1, vascular endothelial growth factor receptor-2 (VEGFR2) on HUVEC (human, UniProt P35968 20-1356)
T1 construct: whole, on cells
Experiment: flow cytometry on HUVEC (express VEGFR2), FITC anti-His detection

T1 sequence (P35968 20-1356): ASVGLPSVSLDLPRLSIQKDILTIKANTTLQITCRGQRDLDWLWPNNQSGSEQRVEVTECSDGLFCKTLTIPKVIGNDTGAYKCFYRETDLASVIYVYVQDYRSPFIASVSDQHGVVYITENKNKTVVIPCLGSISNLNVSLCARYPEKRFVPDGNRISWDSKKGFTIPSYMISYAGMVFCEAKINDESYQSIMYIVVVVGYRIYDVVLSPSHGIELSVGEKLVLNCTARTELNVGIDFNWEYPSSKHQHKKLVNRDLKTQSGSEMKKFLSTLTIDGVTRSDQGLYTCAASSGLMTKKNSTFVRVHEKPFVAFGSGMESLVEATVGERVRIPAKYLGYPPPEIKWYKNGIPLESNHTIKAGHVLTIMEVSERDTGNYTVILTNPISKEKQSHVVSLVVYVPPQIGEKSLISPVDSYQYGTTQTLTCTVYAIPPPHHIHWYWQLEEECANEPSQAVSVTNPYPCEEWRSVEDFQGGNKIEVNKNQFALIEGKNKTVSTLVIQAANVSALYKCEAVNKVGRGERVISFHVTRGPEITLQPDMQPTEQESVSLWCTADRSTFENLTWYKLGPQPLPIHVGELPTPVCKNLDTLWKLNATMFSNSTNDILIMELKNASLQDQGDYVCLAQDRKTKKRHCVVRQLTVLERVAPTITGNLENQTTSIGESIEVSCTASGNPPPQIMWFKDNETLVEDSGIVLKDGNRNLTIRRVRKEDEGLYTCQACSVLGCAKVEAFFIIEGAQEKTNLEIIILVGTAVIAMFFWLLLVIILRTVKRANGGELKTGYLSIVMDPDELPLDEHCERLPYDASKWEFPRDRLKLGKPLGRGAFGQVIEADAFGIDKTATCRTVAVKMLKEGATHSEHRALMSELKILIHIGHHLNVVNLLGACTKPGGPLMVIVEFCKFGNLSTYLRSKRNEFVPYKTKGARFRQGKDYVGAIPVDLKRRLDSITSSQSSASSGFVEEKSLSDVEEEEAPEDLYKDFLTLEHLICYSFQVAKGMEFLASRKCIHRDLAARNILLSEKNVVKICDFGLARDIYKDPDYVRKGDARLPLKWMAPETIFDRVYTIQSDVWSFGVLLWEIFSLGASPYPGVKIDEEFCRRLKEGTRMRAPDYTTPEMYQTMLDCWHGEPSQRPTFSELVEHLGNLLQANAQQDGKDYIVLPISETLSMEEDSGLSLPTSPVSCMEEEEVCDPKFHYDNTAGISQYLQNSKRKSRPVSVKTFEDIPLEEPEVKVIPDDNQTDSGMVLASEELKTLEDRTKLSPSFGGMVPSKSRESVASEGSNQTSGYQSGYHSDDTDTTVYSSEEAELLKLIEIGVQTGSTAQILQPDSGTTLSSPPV

B1: His-tagged gremlin-1 (R&D Systems) (ligand, UniProt O60565 25-184, looked up)
chain: KKKGSQGAIPPPDKAQHNDSEQTQSPQQPGSRNRGRGQGRGTAMPGEEVLESSQEALHVTERKYLKRDWCKTQPLKQTIHEEGCNSRTIINRFCYGQCNSFYIPRHIRKEEGSFQSCSFCKPKKFTTMMVTLNCPELQPPTKKKRVTRVKQCRCISIDLD
notes: Commercial protein; not shown: His tag
B1: no binding (tested: 100 nM).
